From PMC11836926

Tests used:
Experiment in all cases: potentiometry
[1] = target: Lys70; details: 298 K, 0.1 M NaClO4, none (HClO4-acidified solution titrated with 0.1 M carbonate-free NaOH under argon)
[2] = target: His323; details: 298 K, 0.1 M NaClO4, none (HClO4-acidified solution titrated with 0.1 M carbonate-free NaOH under argon)
[3] = target: Cys143; details: 298 K, 0.1 M NaClO4, none (HClO4-acidified solution titrated with 0.1 M carbonate-free NaOH under argon)
[4] = target: Asp127; details: 298 K; 0.1 M NaClO4; none (HClO4-acidified solution titrated with 0.1 M carbonate-free NaOH under argon); free (apo) peptide
[5] = Cu(II)-bound, mononuclear 1:1 complex

## EMMTPHHQDAIDMAEMALQKAEHPE
[1]; [5]
  pKa: 9.56
[1]; free (apo) peptide
  pKa: 9.94

## GACPNRMDAAAAAAAADHIMD
[2]; [5]
  pKa: 5.05
[2]; free (apo) peptide
  pKa: 6.92
[3]; [5]
  pKa: 7.49
[3]; free (apo) peptide
  pKa: 9.56

## GMMGMHQGHGMMAMD
[4]
  pKa: 3.80
